Results from article doi:10.1101/2023.12.22.572801.

Biological target: RbpB (BT_1887), recombinant B. thetaiotaomicron RbpB (B. thetaiotaomicron) (UniProt A9IXD6)
Test: SEC

stoichiometry N: 2
Substance: RbpB (BT_1887), recombinant B. thetaiotaomicron RbpB (from UniProt A9IXD6 1-44) (natural protein)
